Measured values: the DeepSol protein solubility set

Assay: soluble on expression in E. coli; label from the status in PepcDB or PDB records

Sequence | soluble on expression in E. coli
MGSDKIHHHHHHMITIVKKVRNEIIRKIYRIPLFSNTADIAYQTAITQHTNHLPYLADSDLSLVKNLQEEGIVITSLTELSIPSTMEMLQAAKLLKTKIPINIAGNQNEFTVHASSEQIREHSSIFFWGLQERLLNIVENYLGLSVAYHGAYFRRDINNQVRKKSRLWHLDKEDRKMLKIIIYLNDVNEDGGPFEYIPKSLTSHISKSLKYDDTYIKDETMDQVVSSSYWQPCTGKSGAVIFVDTANIFHRGKLPLSSDRLSIFFDYTTRQPKHPFYCKSSLSNKDLLAVSAELSENQKQCIFWQHNYN | not soluble
MGSDKIHHHHHHMITNTHLLISYIVYKNLYNNFNFKLDMAAFALGNIKPDFINKEIKCSHTLNESLDSLIEYSNKLVKYNNSIRKFSLALGIVCHYICDYFCIYHRDGNEKKGILEHLIYEVKLDSNFTMMFLKGKLNYFGCRDYGGSIKKIIFNIEKEYKLEEKDFKRDIKYALFAAIESSKFIVYSSKLYGN | not soluble
MGSDKIHHHHHHMIVETMTMVEFEEGLKRTRTVFVPFGSVEEHGCHLPLSTDTIQAYEVGKKAALQISLFVAPPIHYGSCRSTSCHPGTISITTATLKCLMKDIVRSLYAQGMRNFIILTGHAGGSHRMALQDAGEELLPEIPDIRIAVVTEYELASREGKGIIETEGDAHAGEIETSRILHTHPHLVQGRGEREFPSFPTGILVRNKRKYWPNGVWGDPAKATAEKGKRLEELVVKKIVELAAALEQFQE | not soluble
MGSDKIHHHHHHMIYMIIHKFIIHVLDKNSDVPILNDFEGKVNQEVDGFFQKAIKRIAKDEDLRKGVFKDYNDNLIKNCCEQIIYDESTFLKNSKEIASYLFDVMKINAALESCDLAICLYTIKDEKSVAILKLDYKKLYTHSIEFVDDKFNIQMVSNEIGIPETLRQKQGALISLSGINDEFHLRLLDKDAEKEGSESKFVTEFLNAKKIDDDKYKTKVFKNTAENWITNALSNDIKQAEDVRSILNYTLKEKHEVDINDFVDNSIKDDELKDSFKEHMEEKGLDESFSIDKKWVEKKLKKRSIKTDNGFDIKGNLTDFEDPMKYTVKQNQDGTIDIIIKNVTFYEEK | not soluble
MGSDKIHHHHHHMKAFDRDASEPRIGLAYGPGMAEFAARNAHLVDYIEVPFEQLRFSPAVAELQQTIPFVLHCASLSVAGFVPPDDSTVDAIERTAVQTGTPWIGEHLAYISADPVGEALGGTGEPTSLSYTLCPQLSDETVRRVVDNLAALRPHFPVPLIVENSPQYFPIPGSTMGMTDFIRAITDRCDVGLLLDLSHFLITAHNTGAEVHRELARLPLERVVEVHLSGMSVQSGTAWDDHSLPASPILFELLERLLDVARPRALTFEYNWSPYFPLSVLTTHIERARQLMGLA | not soluble
MGSDKIHHHHHHMKASIEQLEPYVPEKPLATLQAELGLTELVRLSANENPYGTSPKVATAVKNWDFTQSNRYPDADAQELRQAVAQQQGIDPNSIVFSVGLDEMIVMLSRTFLATNDQVLVSAPTFSEYGLHAEIEGGQLISVPTLPNDHVNFEGLMKAITPHVKMVWLCNPNNPTGTVESLAAIEAFVQQVPPETMVLIDEAYIDFTPGAAQVTAMQLPAKYPNVVVMRTFSKAYGLANFRIGYAVFNTKYAATMQTIRLPYNVNSLAQVAALAAIDDPNFVKQTVQKNATERAKWMAFFDDQGVTYDQSGANFIFFKYPSATQLADYLVHHGYLIRTGLRPGWLRLTVGTANDNQQLQQLIREFKA | not soluble
MGSDKIHHHHHHMKDVMFYFEIHQPFRLRPTNLYDVKSEQNVFWDEKNEEIFRRVAERSYIPATRNLMEYGIKSSFSITGTAVEQALMYNTKVIDAIDDYVKSGLCEMLSETYYHSLASIWNYDEFKRQVDMHRDLMKRIFNVVPKVFRNTELIYDDRIAEMVKRMGFTSIITEGTDSIVKDHSPNYRYASPSGLNLYLRNYVMSDNISFRFSNTKWKDYPLTADKYAKWINESEGDMVNLFMDYETFGEHQTQETGIFDFMKYLPVYFRDYGIETITISEAEKRHRVKDVLSIPETISWADTRRDLSAWLENEMQIDTFDRIKKCREKAGRLWGYLQTSDIIYYMSIGLEQDFTVHEYFNPYKSPYLAFIYTNYALDKICGSSYGKNEI | not soluble
MGSDKIHHHHHHMKEKERLIIEMAMKLFATKGVNATSVQEIVTACGISKGAFYLYFKSKEELLLATLRYYYDKIQNKMMDIEKESLLPREKFAKQLHCQFNDIQKHKEFIIMHARENAIPFNKEVEEFMMRMKLESHAFYRNSLLSIYGDKVMPYLLDLVIMVEGICRGYLELIILQAPEIDLSYVSAFILKRVDHLVDGLVKSSEEPVLHEERLGEFLCKSELIKEQVKEHFLKEIIVFKRTLADQLEDEELLVTLDVLEAEMRMQNPRIPVIQGMLFNLEAYPTLKEFRLRLMGYYNIKR | not soluble
